# Values of other authors in article PMC3050111.
# Read-outs that look alike come from different tables or passages of the source.
# Tests used:
# [1] = molecular target: integrin αVβ3 (Homo sapiens) (UniProt P06756)
# [2] = molecular target: integrin αVβ3 (Homo sapiens) (UniProt P06756); remark: listed apart in the source
# [3] = molecular target: integrin αVβ3 (Homo sapiens) (UniProt P06756); remark: listed apart in the source
substance,measurement,setting,value
vitronectin (from UniProt P04004),Kd,[1],64 nM
fibrinogen (from UniProt P02671),Kd,[2],27 nM
Tat (from UniProt P04326),Kd,[3],32 nM
